Results taken from PMC11771877 (PLOS Pathogens, 2025).

Columns and labels:
Test in all cases: pull-down
Conditions in all cases: both partners purified
[1] = biological target: original purified His-tagged N protein (SARS-CoV-2, UniProt P0DTC9 1-419)
[2] = biological target: R203M and D377Y mutant N protein, His-tagged (SARS-CoV-2, UniProt P0DTC9 1-419, R203M | D377Y)
[3] = biological target: Omicron mutant N protein, His-tagged (SARS-CoV-2, UniProt P0DTC9 1-419, P13L | RG203/204KR)

Measured: binding result

B1: purified RIG-I-GST protein (natural protein)
chain: MTTEQRRSLQAFQDYIRKTLDPTYILSYMAPWFREEEVQYIQAEKNNKGPMEAATLFLKFLLELQEEGWFRGFLDALDHAGYSGLYEAIESWDFKKIEKLEEYRLLLKRLQPEFKTRIIPTDIISDLSECLINQECEEILQICSTKGMMAGAEKLVECLLRSDKENWPKTLKLALEKERNKFSELWIVEKGIKDVETEDLEDKMETSDIQIFYQEDPECQNLSENSCPPSEVSDTNLYSPFKPRNYQLELALPAMKGKNTIICAPTGCGKTFVSLLICEHHLKKFPQGQKGKVVFFANQIPVYEQQKSVFSKYFERHGYRVTGISGATAENVPVEQIVENNDIIILTPQILVNNLKKGTIPSLSIFTLMIFDECHNTSKQHPYNMIMFNYLDQKLGGSSGPLPQVIGLTASVGVGDAKNTDEALDYICKLCASLDASVIATVKHNLEELEQVVYKPQKFFRKVESRISDKFKYIIAQLMRDTESLAKRICKDLENLSQIQNREFGTQKYEQWIVTVQKACMVFQMPDKDEESRICKALFLYTSHLRKYNDALIISEHARMKDALDYLKDFFSNVRAAGFDEIEQDLTQRFEEKLQELESVSRDPSNENPKLEDLCFILQEEYHLNPETITILFVKTRALVDALKNWIEGNPKLSFLKPGILTGRGKTNQNTGMTLPAQKCILDAFKASGDHNILIATSVADEGIDIAQCNLVILYEYVGNVIKMIQTRGRGRARGSKCFLLTSNAGVIEKEQINMYKEKMMNDSILRLQTWDEAVFREKILHIQTHEKFIRDSQEKPKPVPDKENKKLLCRKCKALACYTADVRVIEECHYTVLGDAFKECFVSRPHPKPKQFSSFEKRAKIFCARQNCSHDWGIHVKYKTFEIPVIKIESFVVEDIATGVQTLYSKWKDFHFEKIPFDPAEMSK
notes: also called GST-RIG-I; RIG-I protein (labeled with GST tag); source: E. coli BL21, purified (GSH Magnetic Agarose Beads)
binds: [1] | [2] | [3]
